Reference: PMC8049995 (The Journal of Biological Chemistry, 2021)
Substitutions are numbered along the chain they refer to. Names may count otherwise.

B1: Human peroxiredoxin 2 C172W mutant, reduced (enzyme, UniProt P32119 2-198, looked up)
chain: ASGNARIGKPAPDFKATAVVDGAFKEVKLSDYKGKYVVLFFYPLDFTFVCPTEIIAFSNRAEDFRKLGCEVLGVSVDSQFTHLAWINTPRKEGGLGPLNIPLLADVTRRLSEDYGVLKTDEGIAYRGLFIIDGKGVLRQITVNDLPVGRSVDEALRLVQAFQYTDEHGEVWPAGWKPGSDTIKPNVDDSKEYFSKHN
B2: Human peroxiredoxin 2 C172S mutant, reduced (enzyme, UniProt P32119 2-198, looked up)
chain: B1 chain with W171S
B3: Human peroxiredoxin 2, recombinant wild type, hyperoxidized (CP sulfinate) form (enzyme, UniProt P32119 2-198, looked up)
chain: B1 chain with W171C
modifications: Cys51 (CP) sulfinate
B4: Human peroxiredoxin 2 C172D mutant, reduced (enzyme, UniProt P32119 2-198, looked up)
chain: B1 chain with W171D

Experiments:
SEC = target: the molecule itself; assay: SEC
SEC-MALS = target: the molecule itself; assay: SEC-MALS
AUC = target: the molecule itself; assay: AUC
crystal structure = target: the molecule itself; assay: crystal structure

Row | Protein | percent decamer (SEC) [%] | stoichiometry N (SEC-MALS) | stoichiometry N (AUC) | stoichiometry N (crystal structure)
1 | B1 | 62 | 10 | – | –
2 | B2 | 60 | – | 10 | –
3 | B3 | – | – | – | 10
4 | B4 | 45 | – | 10 | –
